Each sequence was assayed on MS2 coat protein (assay: apparent KD of MS2 coat protein; higher = weaker reporter binding). Conditions: Eterna round: R107; input ligand: theophylline 2 mM.
Outline: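 Illumina sequencing clusters served as templates for on-chip transcription of the designed RNA switches. SNAP-549-labelled MS2 coat protein was then titrated in twofold steps from 0.7 or 1.5 nM to 3 µM, allowing 0.8–1.5 h per step at first and 10–20 min per step later. The buffer held 100 mM Tris-HCl pH 7.5, 80 mM KCl and 4 mM MgCl2, without or with constant ligand. Apparent KD is the median per design of normalised cluster binding-curve fits.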

Compared with “GUUAUAUCAAAAGAUGUAACAGUGGGUGAACGAGGACCGGUACGGCCGCCACUCGGACAUGAGGAUCACCCAUGUCCAUGUGAAA [AstrosExyTryA#14]”, “ACAUGAGGAUCACCCAUGUACAUCACCCGACGAGGACCGGUACGGCCGCCACUCGGGUAUAUAUUUACAUCGGGUGAUUUUACGU [#23 Tryptophan A Same State]” is 6.1-fold higher in “apparent KD of MS2 coat protein” value: 18.7 nM for the first, 115 nM for the second.

“ACAUGAGGAUCACCCAUGUGCCGUCUUGAUACCAGACCCGAAGUAGUCCCUUGGCAGCAACUACGUGAGGGUCGCCCAUGUGUAG [5kullin]” and “AGCACUGUGACGGCCGCCACUAUAUUAGGGUGGUAAGGUUCAUAAAUACAUGAGGAUCACCCAUGUAGGACCGGGUCUCAGUGCA [Omei Trp Exc B A v2]” are within 1.5-fold of each other in “apparent KD of MS2 coat protein” value: 16.7 nM for the first, 13.5 nM for the second.

Going from “ACUUGAUACUGAAGGAGCGUCGGAUAAACUCGCACAUGAGGAUCACCCAUGUAUAUGAAUCGGCAGGUAGGUCGCAGUAUCGAGU [#21 Same State - Arginine B]” to “CCUUAAUAUAGAAGGAGCGCGCUAACAUGAGGAUCACCCAUGUAAAGGGUUUUGGGCUUAGCGCAGGUAGGUCGCUAUAAGAACC [Arg B Ex t2]”, the “apparent KD of MS2 coat protein” value rises from 17.1 nM to 127 nM (7.4-fold).

For “AACAUGAGGAUCACCCAUGUCCCAUGUGAACGAGGACCGGUACGGCCGCCACUCGACUGAGGCGGCACAUGAGGAUCACCCACAU [whbob_SS_trypto A_2s12]”, the “apparent KD of MS2 coat protein” value was 269 nM.

Same assay, conditions: Eterna round: R107; input ligand: tryptophan 2.4 mM

Compared with “ACAUGAGGAUCACCCAUGUGGCGUCUUGAUACCAGACCCGCACUAGUCCCUUGGCAGCAACUACGUGAGGGUCGCCCAUGUGUAG [zxdullin]”, “UCGCAUUGCUGCGAUACCAGACAUGAGGAUCACCCAUGUACCAAGAAAACGUACAUAAAUGUCCCUUGGCAGCGCAGCAAUGCGU [MAT - Exclusion Theophlline B - Mod of Eli - D26]” is 18-fold higher in “apparent KD of MS2 coat protein” value: 34.4 nM for the first, 631 nM for the second.

“AAACGUUGCUGCGAUACCAGACAUGAGGAUCACCCAUGUACCAAGGUACGAAAAUAACAUGUCCCUUGGCAGCGCAGCAACGAAA [MAT - Exclusion Theophlline B - Mod of Eli - D6]” and “UCCUCCUCCGCAAGGAGGAGGAGUUGCGAUACCAGCCCGGAAACGGGCCCUUGGCAGCGCACAUGAGGAUCACCCAUGUCAUGUU [#1 Exclusion - Theophylline A Attempt #8 (HarryS)]” are within 1.5-fold of each other in “apparent KD of MS2 coat protein” value: 14.5 nM for the first, 18 nM for the second.

First: ACAUGAGGAUCACCCAUGUCUGCCACUGAUACCAGCGGAUGCCAACGCCCUUGGCAGCAGAACAUGAGGAUCACCCAUGUAGGCA [Same State Theophylline A GF25]
Second: UCCUUAGAUACUGAUACCAGACUACAGUAAACAUGAGGAUCACCCAUGUUUGAUCACUAAGUCCCUUGGCAGCAGGUACAUGGGA [Theo B SS r1]
The “apparent KD of MS2 coat protein” value of the first is 25-fold higher: 297 nM for the first, 11.9 nM for the second.

Compared with “AUGCGGUGCGGAAGGAGCGAGUUUGCCUAUUUACAUGAGGAUCACCCAUGUCCUAAUGGGACUCAGGUAGGUCGCCGUUGUCGCA [Same State Arginine B GF 29]”, “UAUAUAUAGGCGGCCGCCACUGAUUUUCAUAUAUAUAUAACAUGAGGAUCACCCAUGUAGAUAUACAGGACCGGGCCUAUAUAUA [aaaA]” is 3.9-fold lower in “apparent KD of MS2 coat protein” value: 52.1 nM for the first, 13.3 nM for the second.

“UCGGGCCUUCUUUCUUGGCCCGUUACAGAAGGAGCGUCGGAAAUGACAGGUAGGUCGCUGAGAACAUGAGGAUCACCCAUGUAUU [SSAA #14]” and “AUACCUAUUGAGUCGUGUUUCUAUUCAGAUACCAGACUUUUCGUUGUCCCUUGGCAGCUGUUUUACAUGAGGAUCACCCAUGUUG [JR_ExcTheophyA_Sub006]” are within 1.5-fold of each other in “apparent KD of MS2 coat protein” value: 22.1 nM for the first, 15 nM for the second.

Compared with “AAGGGACAUGAGGAUCACCCAUGUACCGAAGGAGCGGCAGAGAUGCCAGGUAGGUCGCGGUACUUGCCGGGUCAUUCAUGCAAAA [Teanbe]”, “GGUUGGUGUAGAGAUAUAUUGAUUACUGAAGGAGCGGGACGAAACCCAGGUAGGUCGCAGAGAUCCACAUGAGGAUCACCCAUGU [!0.M]” is 1.5-fold higher in “apparent KD of MS2 coat protein” value: 21.8 nM for the first, 33.4 nM for the second.

“CUCUGAGUCCGUAAGGACUCAGAGGCGGAUACCAGCGAGGUCCAUCGCCCUUGGCAGCCGAACAUGAGGAUCACCCAUGUCGGUA [#1 Same State - Theophylline A Attempt #25 (HarryS)]” and “ACAUGAGGAUCACCCAUGUUUGUUGUUCCUCGAGGACCGGUACGGCCGCCACUCGAACGAGUGGCGCGCGAGUGCGCACUCGCGC [aOa]” are within 1.5-fold of each other in “apparent KD of MS2 coat protein” value: 11.5 nM for the first, 11.7 nM for the second.

First: ACGUCAACCCUUAUGUUGAUGCAAGACGAUACCAGCCUGGAUACAGGCCCUUGGCAGCGUCAACAUGAGGAUCACCCAUGUAAUA [(T)''-(MT)'-(Theo)-(Ms2)]
Second: ACACGAAGCUGAAGGAGCGUGGUAUAAUUUUUUACAUGAGGAUCACCCAUGUCUCAUUUUUCACAGGUAGGUCGCAGAUGCGUGA [JR_SSArginiB_Sub015]
The “apparent KD of MS2 coat protein” value of the first is 1.7-fold lower: 45.3 nM for the first, 78.7 nM for the second.

“AUUGCGAGUGAGUCGUGUAACGAUUCAGAUACCAGGCAUUUCGUUGUCCCUUGGCAGCUGUCUUACAUGAGGAUCACCCAUGUUA [#29 Exclusion-TheophyllineA]” and “AGACAUGAGGAUCACCCAUGUAGUAUGGAUACCAGAUCCAGAUUUAUCCCUUGGCAGCUGUGGUACAGCGAUGGAUUGCUCCUAG [Exclusion - Theophylline A (Freestyle 10)]” are within 1.5-fold of each other in “apparent KD of MS2 coat protein” value: 56.3 nM for the first, 39.2 nM for the second.

Compared with “UUUGAUAGGACAGAUACCAGCGUGUUGUAGAACAUGAGGAUCACCCAUGUAGUGAUCAAGCGCCCUUGGCAGCUGGUUUGUUAGG [7.L]”, “GGUAGACGGACGGCCGCCACUCACAUGAGGAUCACCCAUGUAUAGUUGGUAAUCUGGGUUCAGGAGAGGACCGGGUCCUUGUCAG [theeternabot_exclusion_MS2_Trp_B_43]” is 16-fold lower in “apparent KD of MS2 coat protein” value: 363 nM for the first, 23.3 nM for the second.

First: AUUCAGAGAUCACAUGAGGAUCACCCAUGUCGAGGACCGGUACGGCCGCCACUCGCGGCGGUGAAAAUAGAUACAAAGUAUCUAU [Ex_TrypA - Vienna approves #2]
Second: ACAUGAGGAUCACCCAUGUACAUGAGGGAAGGAGCGGUACAUGAGCCAGGUAGGUCGCCCAACAGCAAAUGGCAUGUACAACGGA [hhnmullin]
The “apparent KD of MS2 coat protein” value of the first is 4.5-fold higher: 284 nM for the first, 63.5 nM for the second.

Going from “GAGCGCGUGGACUGGCGUGCUCCGCUCCGUCGAGGACCGGUACGGCCGCCACUCGACAUGAGGAUCACCCAUGUGCGCGCUCGCU [#1 Exclusion - Tryptophan A Attempt #23 (HarryS)]” to “GCCGCGGCCGCGAUACACAUGGGUGUGUAACGAGGACCGGUACGGCCGCCACUCGAGAUGGCACAUGAGGAUCACCCAUGUGUGC [Exclusion Tryp A GF16]”, the “apparent KD of MS2 coat protein” value rises from 19.8 nM to 29.9 nM (1.5-fold).

“GGCACGUACGGAAGGAGCGACUGUUCAACGUGGGUACAUGAGGAUCACCCAUGUCUCCGCAGUCAGGUAGGUCGCCGUACGUGCC [EAB NP+V+V2 #20]” and “ACAUGAGGAUCACCCAUGUGCCGUCUUGAUACCAGACCCGAAGUAGUCCCUUGGCAGCAACUACGUGAGGGUCGCCCAUGUGUAG [5kullin]” are within 1.5-fold of each other in “apparent KD of MS2 coat protein” value: 10.7 nM for the first, 13.7 nM for the second.

Compared with “AGCACUGUGACGGCCGCCACUAUAUUAGGGUGGUAAGGUUCAUAAAUACAUGAGGAUCACCCAUGUAGGACCGGGUCUCAGUGCA [Omei Trp Exc B A v2]”, “UUUGAUAGGACAGAUACCAGCGUGUUAUAAAACAUGAGGAUCACCCAUGUAGUGAUCAAGCGCCCUUGGCAGCUGGUUUGUUAGG [7.J]” is 12-fold higher in “apparent KD of MS2 coat protein” value: 17.1 nM for the first, 207 nM for the second.

First: ACUUGAUACUGAAGGAGCGUCGGAUAAACUCGCACAUGAGGAUCACCCAUGUAUAUGAAUCGGCAGGUAGGUCGCAGUAUCGAGU [#21 Same State - Arginine B]
Second: AAUAACAUGAGGAUCACCCAUGUAAAAGAUACCAGAUGCAUGAUGAUCCCUUGGCAGCUUAAAACGCGAUUGGAAACAAUCGCGA [Mat - Same State Theophlline A - Mod of Eli - D13]
The “apparent KD of MS2 coat protein” value of the first is 2-fold lower: 15.4 nM for the first, 30.8 nM for the second.

With “CCUUAAUAUAGAAGGAGCGCGCUAACAUGAGGAUCACCCAUGUAAAGGGUUUUGGGCUUAGCGCAGGUAGGUCGCUAUAAGAACC [Arg B Ex t2]” the “apparent KD of MS2 coat protein” value was 93.9 nM.
